Laboratory results: paper PMC5193325

Target: Flag-NLRP3 (UniProt Q96P20)
Experiment: pull-down; competition: purified cytochrome c (100 ng) or BSA added to Flag-NLRP3 immunoprecipitates with HA-NEK7 lysate, 1 hour at room temperature; NEK7 left on the beads read by immunoblot, ImageJ

Chain of Flag-NLRP3 (Q96P20 whole entry): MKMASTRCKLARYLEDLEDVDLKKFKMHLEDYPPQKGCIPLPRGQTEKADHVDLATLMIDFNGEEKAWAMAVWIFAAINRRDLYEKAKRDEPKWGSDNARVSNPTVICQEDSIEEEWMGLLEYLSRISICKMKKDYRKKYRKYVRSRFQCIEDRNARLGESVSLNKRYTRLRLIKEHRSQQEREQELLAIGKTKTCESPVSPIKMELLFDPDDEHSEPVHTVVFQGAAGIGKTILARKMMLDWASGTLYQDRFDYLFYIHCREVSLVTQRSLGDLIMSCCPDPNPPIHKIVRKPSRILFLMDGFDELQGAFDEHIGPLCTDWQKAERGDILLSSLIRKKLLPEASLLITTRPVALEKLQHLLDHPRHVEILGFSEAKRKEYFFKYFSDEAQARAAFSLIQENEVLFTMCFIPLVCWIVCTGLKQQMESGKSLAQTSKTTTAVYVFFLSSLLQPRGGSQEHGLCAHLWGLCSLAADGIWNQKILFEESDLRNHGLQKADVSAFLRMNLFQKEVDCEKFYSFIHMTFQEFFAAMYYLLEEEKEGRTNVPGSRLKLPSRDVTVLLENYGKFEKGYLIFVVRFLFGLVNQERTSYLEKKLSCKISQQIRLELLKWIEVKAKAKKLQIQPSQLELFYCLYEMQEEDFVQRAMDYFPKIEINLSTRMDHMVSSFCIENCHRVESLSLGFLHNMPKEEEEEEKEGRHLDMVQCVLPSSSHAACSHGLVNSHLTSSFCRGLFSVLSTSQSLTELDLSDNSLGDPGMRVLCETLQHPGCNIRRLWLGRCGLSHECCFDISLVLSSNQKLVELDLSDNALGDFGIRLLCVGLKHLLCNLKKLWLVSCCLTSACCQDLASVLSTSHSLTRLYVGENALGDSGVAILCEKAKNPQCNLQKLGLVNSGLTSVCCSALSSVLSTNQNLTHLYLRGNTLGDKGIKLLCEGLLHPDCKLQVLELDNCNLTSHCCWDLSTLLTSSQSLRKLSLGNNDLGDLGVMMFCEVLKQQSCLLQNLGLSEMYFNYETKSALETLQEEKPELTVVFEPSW

Question: For “Purified cytochrome c protein (Sigma-Aldrich) (from UniProt P99999 1-105) (natural protein)”, which percent reduction of NEK7 bound to Flag-NLRP3 (cytochrome c against BSA) is on record?
Answer: 70%
